We go through 1 molecule from PMC10600506, “A potent and broad‐spectrum neutralizing nanobody for SARS‐CoV‐2 viruses, including all major Omicron strains” (MedComm, 2023).

One may read the Kd as the constant that tells how readily two partners part at equilibrium. Low values mean higher affinity, high ones lower affinity.

The assay deals with T1, SARS-CoV-2 Omicron BA.1 Spike receptor-binding domain (SARS-CoV-2 Omicron BA.1, strain, biotin on the Avi tag (for phage screening and BLI); not biotinylated for crystallisation).
T1 construct: Spike glycoprotein of SARS-CoV-2, Omicron BA.1, RBD1 (319-514) domain; also called RBD1; BA.1 RBD; not shown: Avi-tag, C-terminal, kept
Briefly: BLI; biotinylated monovalent, […]; 25°C; 20 mM HEPES pH 7.4, 150 mM NaCl, 10 mg/mL BSA. The conditions noted are these: both partners purified. In general terms: Biolayer interferometry detects binding as a change in optical thickness at a sensor tip.

B1: Nb4 (VHH)
VHH: AVQLQASGGGFVQPGGSLRLSCAASGWAETFGHMGWFRQAPGKEREFVSAIDWWDTVHYYADSVKGRFTISRDNSKNTVYLQMNSLRAEDTATYYCAYWDMDYLQNSIPVDYWGQGTQVTVSS
notes: also called Nb4 monomer; monomeric Nb4
The molecule B1 returned a Kd of around 8 nM.
